Source: patent publication US20230227538A1 (published 2023)
Where a chain is given by its changes, count along the chain named.

Columns and labels:
SpikeS2P = assay: SPR
[1] = biological target: SARS-CoV-2 Spike receptor binding domain (RBD) (SARS-CoV-2, UniProt P0DTC2 319-541); assay: flow
SC2 spike ECD = assay: SPR

B1: mNb6 (VHH)
VHH: QVQLVESGGGLVQAGGSLRLSCAASGYIFGRNAMGWYRQAPGKERELVAGITRRGSITYYADSVKGRFTISRDNAKNTVYLQMNSLKPEDTAVYYCAADPASPAYGDYWGQGTQVTVSS
- Kd (SpikeS2P): 0.45 nM

B2: Nb6 (AeroNab6, NbCOV6, clone pNbCOV006A) (VHH)
VHH: B1 VHH with Y27I, Y105P
- EC50 [1]: 30 nM

B3: NbCOV11 (VHH)
VHH: HVQLVESGGGLVQAGGSLRLSCAVSGASAERVGWFRRAPGKEREFVAAIGANGGSTNYLDSVKGRFTISRDNAKNTVYLQMNSLKPQDTAVYYCAARNLETFDYTYWGRGTQVTVSS
- Kd (SC2 spike ECD): 141 nM
